B1: GUCY2C-1679 (bispecific antibody)
chain 1: DIQLTQSPSSLSASVGDRVTITCRASESVDYYGSSLLQWYQQKPGKAPKLLIYAASKLASGVPSRFSGSGSGTDFTLTISSLQPEDFATYYCQQTRKAYTFGQGTKLEIKGGGSGGGGEVQLVESGGGLVQPGGSLRLSCAASGFTFSDYYMTWVRQAPGKGLEWVAFIRNQARGYTSDHNPSVKGRFTISRDNAKNSLYLQMNSLRAEDTAVYYCARDRPSYYVLDYWGQGTTVTVSSGCPPCPAPEAAGAPSVFLFPPKPKDTLMISRTPEVTCVVVDVSHEDPEVKFNWYVDGVEVHNAKTKPREEQYNSTYRVVSVLTVLHQDWLNGKEYKCKVSNKALPAPIEKTISKAKGQPREPQVCTLPPSREEMTKNQVSLWCLVKGFYPSDIAVEWESNGQPENNYKTTPPVLDSDGSFFLYSKLTVDKSRWQQGNVFSCSVMHEALHNHYTQKSLSLSPG
chain 2: DIQMTQSPSSLSASVGDRVTITCTSSQSLFNVRSGKNYLAWYQQKPGKAPKLLIYWASDRESGVPSRFSGSGSGTDFTLTISSLQPEDFATYYCKQSYDLFTFGGGTKVEIKGGGGSGGGGEVQLVESGGGLVQPGGSLRLSCAASGFTFSSYWMHWVRQAPGKGLEWIGEIKPSNELTNVHEKFKDRFTISVDKAKNSAYLQMNSLRAEDTAVYYCTRTITTTEGYWFFDVWGQGTLVTVSSGCPPCPAPEAAGAPSVFLFPPKPKDTLMISRTPEVTCVVVDVSHEDPEVKFNWYVDGVEVHNAKTKPREEQYNSTYRVVSVLTVLHQDWLNGKEYKCKVSNKALPAPIEKTISKAKGQPREPQVYTLPPCREEMTKNQVSLSCAVKGFYPSDIAVEWESNGQPENNYKTTPPVLDSDGSFFLVSKLTVDKSRWQQGNVFSCSVMHEALHNHYTQKSLSLSPG
B2: GUCY2C-0250 (bispecific antibody)
chain 1: DIQLTQSPSSLSASVGDRVTITCRASESVDYYGTSLMQWYQQKPGKAPKLLIYAASNVESGVPSRFSGSGSGTDFTLTISSLQPEDFATYYCQQTRKVYTFGQGTKLEIKGGGSGGGGEVQLVESGGGLVQPGGSLRLSCAASGFTFSDYYMTWVRQAPGKGLEWVAFIRNRARGYTSDHNPSVKGRFTISRDNAKNSLYLQMNSLRAEDTAVYYCARDRPSYYVLDYWGQGTTVTVSSGCPPCPAPEAAGAPSVFLFPPKPKDTLMISRTPEVTCVVVDVSHEDPEVKFNWYVDGVEVHNAKTKPREEQYNSTYRVVSVLTVLHQDWLNGKEYKCKVSNKALPAPIEKTISKAKGQPREPQVCTLPPSREEMTKNQVSLWCLVKGFYPSDIAVEWESNGQPENNYKTTPPVLDSDGSFFLYSKLTVDKSRWQQGNVFSCSVMHEALHNHYTQKSLSLSPG
chain 2: DIQMTQSPSSLSASVGDRVTITCTSSQSLFNVRSRKNYLAWYQQKPGKAPKLLIYWASTRESGVPSRFSGSGSGTDFTLTISSLQPEDFATYYCKQSYDLFTFGGGTKVEIKGGGSGGGGEVQLVESGGGLVQPGGSLRLSCAASGYTFTSYWMHWVRQAPGKGLEWIGEIKPSNGLTNYIEKFKNRFTISVDKAKNSAYLQMNSLRAEDTAVYYCTRTITTTEGYWFFDVWGQGTLVTVSSGCPPCPAPEAAGAPSVFLFPPKPKDTLMISRTPEVTCVVVDVSHEDPEVKFNWYVDGVEVHNAKTKPREEQYNSTYRVVSVLTVLHQDWLNGKEYKCKVSNKALPAPIEKTISKAKGQPREPQVYTLPPCREEMTKNQVSLSCAVKGFYPSDIAVEWESNGQPENNYKTTPPVLDSDGSFFLVSKLTVDKSRWQQGNVFSCSVMHEALHNHYTQKSLSLSPG
B3: GUCY2C-1678 (bispecific antibody)
chain 1: DIQLTQSPSSLSASVGDRVTITCRASESVDYYGSSLLQWYQQKPGKAPKLLIYAASKLASGVPSRFSGSGSGTDFTLTISSLQPEDFATYYCQQTRKAYTFGQGTKLEIKGGGSGGGGEVQLVESGGGLVQPGGSLRLSCAASGFTFSDYYMTWVRQAPGKGLEWVAFIRNQARGYTSDHNPSVKGRFTISRDNAKNSLYLQMNSLRAEDTAVYYCARDRPSYYVLDYWGQGTTVTVSSGCPPCPAPEAAGAPSVFLFPPKPKDTLMISRTPEVTCVVVDVSHEDPEVKFNWYVDGVEVHNAKTKPREEQYNSTYRVVSVLTVLHQDWLNGKEYKCKVSNKALPAPIEKTISKAKGQPREPQVCTLPPSREEMTKNQVSLWCLVKGFYPSDIAVEWESNGQPENNYKTTPPVLDSDGSFFLYSKLTVDKSRWQQGNVFSCSVMHEALHNHYTQKSLSLSPG
chain 2: DIQMTQSPSSLSASVGDRVTITCTSDQSLFNVRSGKNYLAWYQQKPGKAPKLLIYWASDRESGVPSRFSGSGSGTDFTLTISSLQPEDFATYYCKQSYDLFTFGGGTKVEIKGGGGSGGGGEVQLVESGGGLVQPGGSLRLSCAASGFTFSSYWMHWVRQAPGKGLEWIGEIKPSNELTNVHEKFKDRFTISVDKAKNSAYLQMNSLRAEDTAVYYCTRTITTTEGYWFFDVWGQGTLVTVSSGCPPCPAPEAAGAPSVFLFPPKPKDTLMISRTPEVTCVVVDVSHEDPEVKFNWYVDGVEVHNAKTKPREEQYNSTYRVVSVLTVLHQDWLNGKEYKCKVSNKALPAPIEKTISKAKGQPREPQVYTLPPCREEMTKNQVSLSCAVKGFYPSDIAVEWESNGQPENNYKTTPPVLDSDGSFFLVSKLTVDKSRWQQGNVFSCSVMHEALHNHYTQKSLSLSPG
B4: GUCY2C-1680 (bispecific antibody)
chain 1: DIQLTQSPSSLSASVGDRVTITCRASESVDYYGSSLLQWYQQKPGKAPKLLIYAASKLASGVPSRFSGSGSGTDFTLTISSLQPEDFATYYCQQTRKAYTFGQGTKLEIKGGGSGGGGEVQLVESGGGLVQPGGSLRLSCAASGFTFSDYYMTWVRQAPGKGLEWVAFIRNQARGYTSDHNPSVKGRFTISRDNAKNSLYLQMNSLRAEDTAVYYCARDRPSYYVLDYWGQGTTVTVSSGCPPCPAPEAAGAPSVFLFPPKPKDTLMISRTPEVTCVVVDVSHEDPEVKFNWYVDGVEVHNAKTKPREEQYNSTYRVVSVLTVLHQDWLNGKEYKCKVSNKALPAPIEKTISKAKGQPREPQVCTLPPSREEMTKNQVSLWCLVKGFYPSDIAVEWESNGQPENNYKTTPPVLDSDGSFFLYSKLTVDKSRWQQGNVFSCSVMHEALHNHYTQKSLSLSPG
chain 2: DIQMTQSPSSLSASVGDRVTITCTSSESLFNVRSGKNYLAWYQQKPGKAPKLLIYWASDRESGVPSRFSGSGSGTDFTLTISSLQPEDFATYYCKQSYDLFTFGGGTKVEIKGGGGSGGGGEVQLVESGGGLVQPGGSLRLSCAASGFTFSSYWMHWVRQAPGKGLEWIGEIKPSNELTNVHEKFKDRFTISVDKAKNSAYLQMNSLRAEDTAVYYCTRTITTTEGYWFFDVWGQGTLVTVSSGCPPCPAPEAAGAPSVFLFPPKPKDTLMISRTPEVTCVVVDVSHEDPEVKFNWYVDGVEVHNAKTKPREEQYNSTYRVVSVLTVLHQDWLNGKEYKCKVSNKALPAPIEKTISKAKGQPREPQVYTLPPCREEMTKNQVSLSCAVKGFYPSDIAVEWESNGQPENNYKTTPPVLDSDGSFFLVSKLTVDKSRWQQGNVFSCSVMHEALHNHYTQKSLSLSPG

Assays:
[1] = molecular target: Human CD3 on naive human T cells (human, UniProt P07766 23-207); experiment: cell-based or functional assay
Human CD3 epsilon-delta = molecular target: T1, Human CD3 epsilon-delta (human); experiment: SPR, recombinant human CD3
T1 construct: Single-chain epsilon-linker-delta with His6; also called huCD3
T1 chain: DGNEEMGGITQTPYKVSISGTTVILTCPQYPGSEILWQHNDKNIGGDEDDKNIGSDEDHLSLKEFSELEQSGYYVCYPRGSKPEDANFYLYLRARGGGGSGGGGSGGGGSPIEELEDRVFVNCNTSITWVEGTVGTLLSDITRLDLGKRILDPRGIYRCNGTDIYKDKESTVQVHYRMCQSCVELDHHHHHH

Human GUCY2C ECD-muIgG2a = molecular target: T2, Human GUCY2C ECD-muIgG2a (human); experiment: huCD3-huGUCY2C sandwich ELISA (CD3 coated)
T2 construct: also called human GUCY2c ECD-mouse IgG2a Fc fusion protein; huGUCY2c-mIgG2a
T2 sequence (chain, as listed by the source limits assumed): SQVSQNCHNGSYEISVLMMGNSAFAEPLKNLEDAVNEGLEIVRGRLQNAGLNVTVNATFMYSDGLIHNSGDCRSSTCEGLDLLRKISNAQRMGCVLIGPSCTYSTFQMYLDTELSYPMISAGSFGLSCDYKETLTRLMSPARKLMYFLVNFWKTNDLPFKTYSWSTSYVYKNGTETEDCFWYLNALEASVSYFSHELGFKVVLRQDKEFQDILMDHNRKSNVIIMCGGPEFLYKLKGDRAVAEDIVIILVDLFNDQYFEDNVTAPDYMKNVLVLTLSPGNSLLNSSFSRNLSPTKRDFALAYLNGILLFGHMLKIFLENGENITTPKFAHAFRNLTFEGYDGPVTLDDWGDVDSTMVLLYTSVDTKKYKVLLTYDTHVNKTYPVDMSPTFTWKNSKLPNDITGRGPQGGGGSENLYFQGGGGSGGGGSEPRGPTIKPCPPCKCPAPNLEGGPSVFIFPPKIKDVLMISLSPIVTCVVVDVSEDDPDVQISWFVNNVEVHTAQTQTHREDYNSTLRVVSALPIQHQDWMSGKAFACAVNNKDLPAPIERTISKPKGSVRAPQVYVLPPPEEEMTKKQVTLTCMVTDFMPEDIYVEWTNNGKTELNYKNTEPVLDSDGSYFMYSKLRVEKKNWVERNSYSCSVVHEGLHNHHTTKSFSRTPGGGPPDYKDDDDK
Experimental: To test bispecific binding to both GUCY2c and CD3, a sandwich ELISA was performed. […] Plates were washed 3× with PBS+0.05% TWEEN20 and blocked with PBS+3% milk for 1 hr, shaking at RT. Blocking solution was removed and samples serially diluted in block were added and incubated for 1 hr shaking at RT. Plates were washed 3x as before and purified human, cynomolgus or murine GUCY2c ECD-mouse IgG2a Fc fusion protein was added to the plate at 1 μg/ml and incubated at RT, shaking for 1 hr. Plates were washed 3× as before and a secondary antibody was added (goat anti-mouse IgG Fc-HRP—Thermo Scientific, diluted 1:4,000), followed by shaking for 1 hr at RT. Plates were washed as before and signal was developed using TMB, the reaction stopped with H2SO4 and the absorbance read at 450 nm on an EnVision® plate reader (Perkin Elmer). An alternative detection method was also periodically employed in place of TMB/H2SO4.

Binder	In vitro Cytotoxicity (nM), T-cell retargeting assay [1]	Kd (Human CD3 epsilon-delta)	EC50 (Human GUCY2C ECD-muIgG2a)
B1	0.194 nM	72 nM	
B2			76.9 nM
B3	0.247 nM	63.5 nM	
B4	0.385 nM	78.6 nM	

— patent publication US20230340151A1 (Pfizer, published 2023)
